Assays:
Experiment in all cases: SEC
[1] = biological target: human glycyl-tRNA synthetase (GlyRS) C157R, CMT mutant (human)
[2] = biological target: human glycyl-tRNA synthetase (GlyRS) E71G, CMT mutant (human)
[3] = biological target: human glycyl-tRNA synthetase (GlyRS) E279D, CMT mutant (human)
[4] = biological target: human glycyl-tRNA synthetase (GlyRS) G240R, CMT mutant (human)
[5] = biological target: human glycyl-tRNA synthetase (GlyRS) G526R, CMT mutant (human)
[6] = biological target: human glycyl-tRNA synthetase (GlyRS) L129P, CMT mutant (human)
[7] = biological target: human glycyl-tRNA synthetase (GlyRS), wild type (human)

**Q.** For “human glycyl-tRNA synthetase (GlyRS) C157R, CMT mutant (enzyme)”, which stoichiometry N [1] is on record?
**A.** 2

**Q.** How did the stoichiometry N [2] turn out when “human glycyl-tRNA synthetase (GlyRS) E71G, CMT mutant (enzyme)” was run?
**A.** 2

**Q.** How did the stoichiometry N [3] turn out when “human glycyl-tRNA synthetase (GlyRS) E279D, CMT mutant (enzyme)” was run?
**A.** 2

**Q.** With “human glycyl-tRNA synthetase (GlyRS) G240R, CMT mutant (enzyme)” as the substance, how does the stoichiometry N [4] read?
**A.** 2

**Q.** How did the stoichiometry N [5] turn out when “human glycyl-tRNA synthetase (GlyRS) G526R, CMT mutant (enzyme)” was run?
**A.** 2

**Q.** “human glycyl-tRNA synthetase (GlyRS) L129P, CMT mutant (enzyme)” was tested. Which stoichiometry N [6] did it give?
**A.** 2

**Q.** How did the stoichiometry N [7] turn out when “human glycyl-tRNA synthetase (GlyRS), wild type (enzyme)” was run?
**A.** 2

Reference: paper PMC8856733
